Common to all, as to settings: both partners purified
The target of experiment [1] is T1, Fc-tagged IFNα1 (human, UniProt P0DY56).
T1 construct: interferon alpha-1 (IFNα1), human; source: bought: ACROBiosystems (IFA-H5258)
The experiment in a line: BLI; blocking format: IFN-I preincubated 1 h at room temperature with rontalizumab (1:50), sifalimumab (1:50) or plasma (1:10) in assay buffer with 50% goat serum; His-tagged IFNAR1 or IFNAR2 loaded on Ni-NTA biosensors, blocked in 100% goat serum; association 120 s.

The target in experiment [2] is T2, His-tagged IFNAR2 (human, UniProt P48551 27-243).
T2 construct: interferon alpha/beta receptor 2 (IFNAR2), human; Soluble recombinant receptor subunit loaded on Ni-NTA biosensors; source: bought: ACROBiosystems (IF2-H5224)
T2 sequence (looked up): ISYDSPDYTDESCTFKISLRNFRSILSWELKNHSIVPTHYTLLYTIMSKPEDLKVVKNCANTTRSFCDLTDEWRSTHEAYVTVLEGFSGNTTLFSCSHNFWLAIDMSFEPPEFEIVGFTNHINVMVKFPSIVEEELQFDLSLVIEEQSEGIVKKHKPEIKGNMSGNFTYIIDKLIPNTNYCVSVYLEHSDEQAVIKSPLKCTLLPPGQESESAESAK
The experiment in a line: BLI; His-tagged IFNAR1 (25 nM) or IFNAR2 (100 nM) loaded on Ni-NTA biosensors for 600 s; IFN-I in solution, association 60-120 s, dissociation 120 s; 0.02% Tween-20, 0.1% BSA in 1x PBS, pH 7.4; Octet R2. (In BLI a coated tip is dipped into the sample, and binding shifts an interference pattern.)

The target in experiment [3] is T3, His-tagged IFNAR1 (human, UniProt P17181 28-436).
T3 construct: interferon alpha/beta receptor 1 (IFNAR1), human; Soluble recombinant receptor subunit loaded on Ni-NTA biosensors; source: bought: ACROBiosystems (IF1-H5225)
T3 sequence (looked up): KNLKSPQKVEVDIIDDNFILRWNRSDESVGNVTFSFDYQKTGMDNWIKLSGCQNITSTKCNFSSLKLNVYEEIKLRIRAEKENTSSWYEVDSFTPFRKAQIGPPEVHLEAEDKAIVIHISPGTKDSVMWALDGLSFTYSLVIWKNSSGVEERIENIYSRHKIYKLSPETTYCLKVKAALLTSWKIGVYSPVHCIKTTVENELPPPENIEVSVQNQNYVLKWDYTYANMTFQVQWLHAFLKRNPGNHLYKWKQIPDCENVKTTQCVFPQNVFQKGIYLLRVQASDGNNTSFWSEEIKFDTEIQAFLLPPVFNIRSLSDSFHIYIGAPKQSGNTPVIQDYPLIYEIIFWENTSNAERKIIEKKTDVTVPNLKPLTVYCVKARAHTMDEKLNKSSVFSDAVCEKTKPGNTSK
The experiment is described as above.

B1: sifalimumab (antibody, V domains shown)
VH: QVQLVQSGAEVKKPGASVKVSCKASGYTFTSYSISWVRQAPGQGLEWMGWISVYNGNTNYAQKFQGRVTMTTDTSTSTAYLELRSLRSDDTAVYYCARDPIAAGYWGQGTLVTVSS
VL: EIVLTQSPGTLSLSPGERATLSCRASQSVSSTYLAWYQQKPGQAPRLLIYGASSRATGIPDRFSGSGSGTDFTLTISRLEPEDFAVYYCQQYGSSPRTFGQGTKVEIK
notes: source: bought: Thermo Fisher Scientific (MA5-41904)
For B1, in experiment [1], the binding result is “binds”.

B2: rontalizumab (antibody, V domains shown)
VH: EVQLVESGGGLVQPGGSLRLSCATSGYTFTEYIIHWVRQAPGKGLEWVASINPDYDITNYNQRFKGRFTISLDKSKRTAYLQMNSLRAEDTAVYYCASWISDFFDYWGQGTLVTVSS
VL: DIQMTQSPSSLSASVGDRVTITCRASQSVSTSSYSYMHWYQQKPGKAPKVLISYASNLESGVPSRFSGSGSGTDFTLTISSLQPEDFATYYCQHSWGIPRTFGQGTKVEIK
notes: source: bought: Thermo Fisher Scientific (MA5-41908)
Consider B2, for which, in experiment [1], the binding result is “binds”.

B3: Fc-tagged IFNα1 (Fc fusion, human, UniProt P0DY56 24-189, looked up)
chain: CDLPETHSLDNRRTLMLLAQMSRISPSSCLMDRHDFGFPQEEFDGNQFQKAPAISVLHELIQQIFNLFTTKDSSAAWDEDLLDKFCTELYQQLNDLEACVMQEERVGETPLMNADSILAVKKYFRRITLYLTEKKYSPCAWEVVRAEIMRSLSLSTNLQERLRRKE
notes: interferon alpha-1 (IFNα1), human; source: bought: ACROBiosystems (IFA-H5258)
Regarding B3, the binding result in experiment [2] and in experiment [3] was “binds” in each case.

The values above are taken from article PMC11924951 (The Journal of Experimental Medicine, 2025).
